Laboratory results from the RNAGym collection of RNA variant scans (doi:10.7554/elife.80360).

B1: Twister Ribozyme (parent)
chain: AACACUGCCAAUGCCGGUCCCAAGCCCGGAUAAAAGUGGAGGGGGCGG

Variants of: B1
Assay: self-cleavage, relative activity (ratio to wild type); higher = more cleavage; co-transcriptional

| Variant | self-cleavage |
| --- | --- |
| C9U A34C | 0.131 |
| C9U A35U | 0.767 |
| C9U A40C | 0.161 |
| C9U A40G | 0.14 |
| C9U A40U | 0.162 |
| C9U C14A | 0.56 |
| C9U C14U | 0.596 |
| C9U C15G | 0.0427 |
| C9U C19A | 0.0695 |
| C9U C19U | 0.226 |
| C9U C20A | 0.0526 |
| C9U C20G | 0.0672 |
| C9U C20U | 0.264 |
| C9U C21A | 0.0683 |
| C9U C25G | 0.113 |
| C9U C26A | 0.0658 |
| C9U C26G | 0.0629 |
| C9U C26U | 0.086 |
| C9U C27G | 0.0911 |
| C9U C27U | 0.37 |
| C9U C46U | 0.729 |
| C9U G13A | 1.03 |
| C9U G13C | 0.592 |
| C9U G16A | 0.405 |

| Variant | self-cleavage |
| --- | --- |
| C9U G16U | 0.373 |
| C9U G17C | 0.0426 |
| C9U G17U | 0.102 |
| C9U G24U | 0.0861 |
| C9U G28A | 0.562 |
| C9U G28U | 0.504 |
| C9U G29A | 0.635 |
| C9U G36C | 0.12 |
| C9U G38U | 0.395 |
| C9U G39A | 0.139 |
| C9U G41C | 0.128 |
| C9U G42A | 0.153 |
| C9U G43A | 0.137 |
| C9U G43U | 0.126 |
| C9U G44A | 0.72 |
| C9U G44C | 0.677 |
| C9U G44U | 0.595 |
| C9U G45C | 0.157 |
| C9U G47A | 0.425 |
| C9U G47U | 0.269 |
| C9U U12C | 0.501 |
| C9U U18A | 0.0726 |
| C9U U18C | 0.0748 |
| C9U U18G | 0.059 |

| Variant | self-cleavage |
| --- | --- |
| C9U U31A | 0.667 |
| C9U U31C | 0.708 |
| C9U U37A | 0.26 |
| C9U U37C | 0.122 |
| C9U U37G | 0.419 |
| A10C | 1.01 |
| A10C A11C | 0.907 |
| A10C A11G | 1.12 |
| A10C A11U | 0.883 |
| A10C A22G | 0.256 |
| A10C A22U | 0.78 |
| A10C A23G | 0.453 |
| A10C A30U | 1.11 |
| A10C A32C | 0.821 |
| A10C A33G | 1.04 |
| A10C A33U | 1.08 |
| A10C A34C | 0.283 |
| A10C A34G | 0.88 |
| A10C A34U | 0.951 |
| A10C A35C | 1.08 |
| A10C A35U | 1.04 |
| A10C A40C | 0.253 |
| A10C C14A | 1.05 |
| A10C C15A | 0.493 |

| Variant | self-cleavage |
| --- | --- |
| A10C C15G | 0.0331 |
| A10C C15U | 0.942 |
| A10C C19A | 0.214 |
| A10C C19U | 0.802 |
| A10C C20A | 0.199 |
| A10C C21A | 0.124 |
| A10C C21U | 0.122 |
| A10C C26A | 0.664 |
| A10C C26G | 0.175 |
| A10C C27U | 0.932 |
| A10C C46A | 0.898 |
| A10C C46U | 0.839 |
| A10C G13A | 0.764 |
| A10C G13C | 0.408 |
| A10C G16U | 0.677 |
| A10C G17A | 0.391 |
| A10C G17C | 0.125 |
| A10C G17U | 0.408 |
| A10C G24A | 0.0991 |
| A10C G24U | 0.0955 |
| A10C G28U | 0.811 |
| A10C G29A | 0.86 |
| A10C G29C | 0.845 |
| A10C G29U | 0.912 |

| Variant | self-cleavage |
| --- | --- |
| A10C G36A | 0.794 |
| A10C G36U | 0.722 |
| A10C G38C | 0.813 |
| A10C G38U | 0.832 |
| A10C G39A | 0.601 |
| A10C G39C | 0.172 |
| A10C G42U | 0.26 |
| A10C G44A | 0.932 |
| A10C G44C | 0.867 |
| A10C G45A | 0.881 |
| A10C G45C | 0.661 |
| A10C G47A | 0.834 |
| A10C G48A | 0.822 |
| A10C G48U | 1.01 |
| A10C U12A | 1.24 |
| A10C U12C | 0.929 |
| A10C U18A | 0.455 |
| A10C U18G | 0.0601 |
| A10C U31A | 0.776 |
| A10C U31C | 0.834 |
| A10C U37A | 0.881 |
| A10C U37G | 0.692 |
| A10G | 1.02 |
| A10G A11C | 0.801 |

| Variant | self-cleavage |
| --- | --- |
| A10G A11U | 1.09 |
| A10G A23U | 0.92 |
| A10G A30G | 0.897 |
| A10G A32C | 1.02 |
| A10G A33C | 1.03 |
| A10G A33U | 0.963 |
| A10G A34G | 0.888 |
| A10G A35G | 0.92 |
| A10G C14A | 0.975 |
| A10G C15U | 0.902 |
| A10G C19G | 0.677 |
| A10G C21U | 0.162 |
| A10G C25A | 0.139 |
| A10G C25U | 0.874 |
| A10G C26G | 0.354 |
| A10G C27A | 0.682 |
| A10G C27G | 0.105 |
| A10G C46U | 1.02 |
| A10G G16A | 1.13 |
| A10G G17U | 0.388 |
| A10G G24A | 0.178 |
| A10G G28A | 1.08 |
| A10G G28U | 1.04 |
| A10G G29A | 1.09 |

| Variant | self-cleavage |
| --- | --- |
| A10G G36A | 0.786 |
| A10G G36C | 0.855 |
| A10G G36U | 0.823 |
| A10G G38C | 0.93 |
| A10G G38U | 0.91 |
| A10G G39C | 0.119 |
| A10G G39U | 0.287 |
| A10G G41A | 0.748 |
| A10G G41C | 0.384 |
| A10G G41U | 0.781 |
| A10G G42A | 0.509 |
| A10G G43U | 0.576 |
| A10G G45A | 1.13 |
| A10G G45U | 0.883 |
| A10G G47U | 1.01 |
| A10G G48C | 1.2 |
| A10G U12A | 1.03 |
| A10G U12G | 1.07 |
| A10G U18C | 0.807 |
| A10G U31A | 0.696 |
| A10G U31C | 0.817 |
| A10G U31G | 0.994 |
| A10U | 0.982 |
